In PMC10945777 (Proceedings of the National Academy of Sciences of the …, 2024):
Values belong to the compound of their own block, whether it stands above or below them.

What was measured:
[1] = target: NrtBCD (nitrate site in NrtB dimer) (Nostoc sp. PCC 7120 = FACHB-418, UniProt A0ACD6B946); assay: colorimetric ATPase assay; format: biochemical; conditions: 2 mM MgCl2, 50 mM Tris-HCl pH 8.0, 150 mM NaCl, 0.02% GDN, 37 °C
[2] = target: NrtB of Anabaena sp. PCC 7120 (transmembrane subunit, as it stands in NrtBCD) (Anabaena sp. PCC 7120); assay: cryo-EM structure
[3] = target: signaling protein PII of Anabaena sp. PCC 7120 (Anabaena sp. PCC 7120); assay: cryo-EM structure

Compound: O=[N+]([O-])O [nitrate]
fold stimulation of ATPase activity at 8 mM [1]: ~ 2.5 fold

stoichiometry N [2]: 2
Compound: NrtB of Anabaena sp. PCC 7120 (transmembrane subunit, as it stands in NrtBCD) (natural protein)

stoichiometry N [3]: 3
Compound: signaling protein PII of Anabaena sp. PCC 7120 (natural protein)
